Measurements reported in US20240132578A1.

Key:
Assay in all cases: cell-based or functional assay
[1] = target: HIV-1 CMU02 envelope glycoprotein (Env) on pseudovirus (HIV-1)
[2] = target: HIV-1 MGRM-D-018 envelope glycoprotein (Env) on pseudovirus (HIV-1)
[3] = target: HIV-1 92UG024 envelope glycoprotein (Env) on pseudovirus (HIV-1)
[4] = target: HIV-1 92TH021 envelope glycoprotein (Env) on pseudovirus (HIV-1)
[5] = target: HIV-1 NL43 envelope glycoprotein (Env) on pseudovirus (HIV-1)
[6] = target: HIV-1 93UG077 envelope glycoprotein (Env) on pseudovirus (HIV-1)
[7] = target: HIV-1 APV6 envelope glycoprotein (Env) on pseudovirus (HIV-1)
[8] = target: HIV-1 93IN905 envelope glycoprotein (Env) on pseudovirus (HIV-1)
[9] = target: HIV-1 92RW020 envelope glycoprotein (Env) on pseudovirus (HIV-1)
[10] = target: aMLV envelope protein on pseudovirus (negative control virus)
[11] = target: HIV-1 MGRM-C-027 envelope glycoprotein (Env) on pseudovirus (HIV-1)
[12] = target: HIV-1 MGRM-C-028 envelope glycoprotein (Env) on pseudovirus (HIV-1)
[13] = target: HIV-1 MGRM-C-026 envelope glycoprotein (Env) on pseudovirus (HIV-1)
[14] = target: HIV-1 92BR020 envelope glycoprotein (Env) on pseudovirus (HIV-1)
[15] = target: HIV-1 JRCSF envelope glycoprotein (Env) on pseudovirus (HIV-1) (UniProt P20871)
[16] = target: HIV-1 MGRM-A-010 envelope glycoprotein (Env) on pseudovirus (HIV-1)
[17] = target: HIV-1 APV13 envelope glycoprotein (Env) on pseudovirus (HIV-1)
[18] = target: HIV-1 94UG103 envelope glycoprotein (Env) on pseudovirus (HIV-1)
[19] = target: HIV-1 MGRM-AG-005 envelope glycoprotein (Env) on pseudovirus (HIV-1)
[20] = target: HIV-1 92UG005 envelope glycoprotein (Env) on pseudovirus (HIV-1)
[21] = target: HIV-1 MGRM-D-001 envelope glycoprotein (Env) on pseudovirus (HIV-1)
[22] = target: HIV-1 JRFL envelope glycoprotein (Env) on pseudovirus (HIV-1)
[23] = target: HIV-1 APV17 envelope glycoprotein (Env) on pseudovirus (HIV-1)
[24] = target: panel of 22 HIV-1 pseudoviruses of Table 52

B1: 5147_N06 (PGT-130) human monoclonal antibody (antibody, V domains shown)
VH: QVQLQESGPGLVKPAETLSLTCSVSGESINTGHYYWGWVRQVPGKGLEWIGHIHYTTAVLHNPSLKSRLTIKIYTLRNQITLRLSNVTAADTAVYHCVRSGGDILYYYEWQKPHWFSPWGPGIHVTVSS
VL: QSALTQPPSASGSLGQSVTISCNGTSSDIGGWNFVSWYQQFPGRAPRLIIFEVNKRPSGVPGRFSGSKSGNSASLTVSGLQSDDEGQYFCSSLFGRWDVVFGGGTKLTVL
Binder B1 has an IC50, neutralization of pseudovirus [1] of over 10 mg/L, an IC80, neutralization of pseudovirus [1] of over 10 mg/L and an IC90 (neutralization of pseudovirus) [1] of over 10 mg/L. For the same binder, the IC95, neutralization of pseudovirus [1] was over 10 mg/L, the IC50, neutralization of pseudovirus [2] was 0.0378 mg/L and the IC80, neutralization of pseudovirus [2] was 0.289 mg/L. For the same binder, the IC90 (neutralization of pseudovirus) [2] was 2.31 mg/L, the IC95, neutralization of pseudovirus [2] was over 10 mg/L and the IC50, neutralization of pseudovirus [3] was over 10 mg/L. The IC80, neutralization of pseudovirus [3] was over 10 mg/L, the IC90 (neutralization of pseudovirus) [3] was over 10 mg/L and the IC95, neutralization of pseudovirus [3] was over 10 mg/L. The IC50, neutralization of pseudovirus [4] was 0.0082 mg/L, the IC80, neutralization of pseudovirus [4] was 0.0261 mg/L and the IC90 (neutralization of pseudovirus) [4] was 0.0513 mg/L. For the same binder, the IC95, neutralization of pseudovirus [4] was 0.0963 mg/L, the IC50, neutralization of pseudovirus [5] was over 10 mg/L and the IC80, neutralization of pseudovirus [5] was over 10 mg/L. It also gave an IC90 (neutralization of pseudovirus) [5] of over 10 mg/L, an IC95, neutralization of pseudovirus [5] of over 10 mg/L and an IC50, neutralization of pseudovirus [6] of over 10 mg/L. It also gave an IC80, neutralization of pseudovirus [6] of over 10 mg/L, an IC90 (neutralization of pseudovirus) [6] of over 10 mg/L and an IC95, neutralization of pseudovirus [6] of over 10 mg/L. For the same binder, the IC50, neutralization of pseudovirus [7] was over 10 mg/L, the IC80, neutralization of pseudovirus [7] was over 10 mg/L and the IC90 (neutralization of pseudovirus) [7] was over 10 mg/L. It also gave an IC95, neutralization of pseudovirus [7] of over 10 mg/L, an IC50, neutralization of pseudovirus [8] of 0.0182 mg/L and an IC80, neutralization of pseudovirus [8] of 0.272 mg/L. For the same binder, the IC90 (neutralization of pseudovirus) [8] was 1.31 mg/L, the IC95, neutralization of pseudovirus [8] was 5.48 mg/L and the IC50, neutralization of pseudovirus [9] was 0.014 mg/L. It also gave an IC80, neutralization of pseudovirus [9] of 0.508 mg/L, an IC90 (neutralization of pseudovirus) [9] of 3.68 mg/L and an IC95, neutralization of pseudovirus [9] of over 10 mg/L. It also gave an IC50, neutralization of pseudovirus [10] of over 10 mg/L, an IC80, neutralization of pseudovirus [10] of over 10 mg/L and an IC90 (neutralization of pseudovirus) [10] of over 10 mg/L. The IC95, neutralization of pseudovirus [10] was over 10 mg/L, the IC50, neutralization of pseudovirus [11] was 0.0052 mg/L and the IC80, neutralization of pseudovirus [11] was 0.0318 mg/L. For the same binder, the IC90 (neutralization of pseudovirus) [11] was 0.106 mg/L, the IC95, neutralization of pseudovirus [11] was 0.464 mg/L and the IC50, neutralization of pseudovirus [12] was over 10 mg/L. The IC80, neutralization of pseudovirus [12] was over 10 mg/L, the IC90 (neutralization of pseudovirus) [12] was over 10 mg/L and the IC95, neutralization of pseudovirus [12] was over 10 mg/L. It also gave an IC50, neutralization of pseudovirus [13] of 0.0173 mg/L, an IC80, neutralization of pseudovirus [13] of 0.263 mg/L and an IC90 (neutralization of pseudovirus) [13] of 1.32 mg/L. It also gave an IC95, neutralization of pseudovirus [13] of 6.13 mg/L, an IC50, neutralization of pseudovirus [14] of 1.12 mg/L and an IC80, neutralization of pseudovirus [14] of over 10 mg/L. For the same binder, the IC90 (neutralization of pseudovirus) [14] was over 10 mg/L, the IC95, neutralization of pseudovirus [14] was over 10 mg/L and the IC50, neutralization of pseudovirus [15] was 0.0089 mg/L. The IC80, neutralization of pseudovirus [15] was 0.0317 mg/L, the IC90 (neutralization of pseudovirus) [15] was 0.0669 mg/L and the IC95, neutralization of pseudovirus [15] was 0.134 mg/L. The IC50, neutralization of pseudovirus [16] was 0.0054 mg/L, the IC80, neutralization of pseudovirus [16] was 0.0251 mg/L and the IC90 (neutralization of pseudovirus) [16] was 0.0643 mg/L. The IC95, neutralization of pseudovirus [16] was 0.164 mg/L, the IC50, neutralization of pseudovirus [17] was 0.0345 mg/L and the IC80, neutralization of pseudovirus [17] was 0.573 mg/L. For the same binder, the IC90 (neutralization of pseudovirus) [17] was 2.88 mg/L, the IC95, neutralization of pseudovirus [17] was over 10 mg/L and the IC50, neutralization of pseudovirus [18] was 0.635 mg/L. The IC80, neutralization of pseudovirus [18] was over 10 mg/L, the IC90 (neutralization of pseudovirus) [18] was over 10 mg/L and the IC95, neutralization of pseudovirus [18] was over 10 mg/L. For the same binder, the IC50, neutralization of pseudovirus [19] was 0.947 mg/L, the IC80, neutralization of pseudovirus [19] was over 10 mg/L and the IC90 (neutralization of pseudovirus) [19] was over 10 mg/L. The IC95, neutralization of pseudovirus [19] was over 10 mg/L, the IC50, neutralization of pseudovirus [20] was 0.474 mg/L and the IC80, neutralization of pseudovirus [20] was over 10 mg/L. The IC90 (neutralization of pseudovirus) [20] was over 10 mg/L, the IC95, neutralization of pseudovirus [20] was over 10 mg/L and the IC50, neutralization of pseudovirus [21] was over 10 mg/L. For the same binder, the IC80, neutralization of pseudovirus [21] was over 10 mg/L, the IC90 (neutralization of pseudovirus) [21] was over 10 mg/L and the IC95, neutralization of pseudovirus [21] was over 10 mg/L. It also gave an IC50, neutralization of pseudovirus [22] of 0.0346 mg/L, an IC80, neutralization of pseudovirus [22] of 0.751 mg/L and an IC90 (neutralization of pseudovirus) [22] of 5.72 mg/L. It also gave an IC95, neutralization of pseudovirus [22] of over 10 mg/L, an IC50, neutralization of pseudovirus [23] of over 10 mg/L and an IC80, neutralization of pseudovirus [23] of over 10 mg/L. It also gave an IC90 (neutralization of pseudovirus) [23] of over 10 mg/L and an IC95, neutralization of pseudovirus [23] of over 10 mg/L.

B2: PGT-136 (5329_C19; 5366_P21) (antibody, V domains shown)
VH: QLQLQESGPGLVKPSETLSLTCTVSGGSMRGTDWGENDFHYGWIRQSSAKGLEWIGSIHWRGRTTHYKTSFRSRATLSIDTSNNRFSLTFSFVTAADTAVYYCARHKYHDIFRVVPVAGWFDPWGQGLLVTVSS
VL: EIVMTQSPPTLSVSPGETATLSCRASQNVKNNLAWYQLKPGQAPRLLIFDASSRAGGIPDRFSGSGYGTDFTLTVNSVQSEDFGDYFCQQYEEWPRTFGQGTKVDIK
B2 was tested, and the IC50, pseudovirus neutralization [1] was over 10 mg/L, the IC50, pseudovirus neutralization [2] was over 10 mg/L and the IC50, pseudovirus neutralization [3] was 0.0915 mg/L. For the same binder, the IC50, pseudovirus neutralization [4] was over 10 mg/L, the IC50, pseudovirus neutralization [5] was over 10 mg/L and the IC50, pseudovirus neutralization [6] was over 10 mg/L. The IC50, pseudovirus neutralization [7] was over 10 mg/L, the IC50, pseudovirus neutralization [8] was 0.0135 mg/L and the IC50, pseudovirus neutralization [10] was over 10 mg/L. The IC50, pseudovirus neutralization [11] was over 10 mg/L, the IC50, pseudovirus neutralization [12] was over 10 mg/L and the IC50, pseudovirus neutralization [13] was 0.0065 mg/L. The % neutralized [24] was 18%, the median IC50, pseudovirus neutralization [24] was 0.05 mg/L and the IC50, pseudovirus neutralization [15] was over 10 mg/L. For the same binder, the IC50, pseudovirus neutralization [16] was over 10 mg/L, the IC50, pseudovirus neutralization [17] was over 10 mg/L and the IC50, pseudovirus neutralization [18] was over 10 mg/L. It also gave an IC50, pseudovirus neutralization [19] of over 10 mg/L, an IC50, pseudovirus neutralization [20] of over 10 mg/L and an IC50, pseudovirus neutralization [21] of over 10 mg/L. For the same binder, the IC50, pseudovirus neutralization [22] was over 10 mg/L and the IC50, pseudovirus neutralization [23] was over 10 mg/L.

B3: PGT-135 (5343_B08; 5344_E16) (antibody, V domains shown)
VH: QLQMQESGPGLVKPSETLSLSCTVSGDSIRGGEWGDKDYHWGWVRHSAGKGLEWIGSIHWRGTTHYKESLRRRVSMSIDTSRNWFSLRLASVTAADTAVYFCARHRHHDVFMLVPIAGWFDVWGPGVQVTVSS
VL: EIVMTQSPDTLSVSPGETVTLSCRASQNINKNLAWYQYKPGQSPRLVIFETYSKIAAFPARFVASGSGTEFTLTINNMQSEDVAVYYCQQYEEWPRTFGQGTKVDIK
With B3 the IC50, pseudovirus neutralization [1] was over 10 mg/L, the IC50, pseudovirus neutralization [2] was 0.0433 mg/L and the IC50, pseudovirus neutralization [3] was 0.0139 mg/L. The IC50, pseudovirus neutralization [4] was over 10 mg/L, the IC50, pseudovirus neutralization [5] was 6.79 mg/L and the IC50, pseudovirus neutralization [6] was over 10 mg/L. For the same binder, the IC50, pseudovirus neutralization [7] was over 10 mg/L, the IC50, pseudovirus neutralization [8] was 0.0183 mg/L and the IC50, pseudovirus neutralization [10] was over 10 mg/L. It also gave an IC50, pseudovirus neutralization [11] of over 10 mg/L, an IC50, pseudovirus neutralization [12] of 2.16 mg/L and an IC50, pseudovirus neutralization [13] of 0.0123 mg/L. The % neutralized [24] was 54%, the median IC50, pseudovirus neutralization [24] was 0.11 mg/L and the IC50, pseudovirus neutralization [15] was 0.113 mg/L. The IC50, pseudovirus neutralization [16] was over 10 mg/L, the IC50, pseudovirus neutralization [17] was 0.545 mg/L and the IC50, pseudovirus neutralization [18] was over 10 mg/L. The IC50, pseudovirus neutralization [19] was over 10 mg/L, the IC50, pseudovirus neutralization [20] was over 10 mg/L and the IC50, pseudovirus neutralization [21] was over 10 mg/L. It also gave an IC50, pseudovirus neutralization [22] of over 10 mg/L and an IC50, pseudovirus neutralization [23] of over 10 mg/L.
